Changes are numbered by the printed parent chain.
Experiments:
[1] = biological target: T1, extracellular domain of activin receptor type IIB (ActRIIBecd), biotinylated (Homo sapiens (Human), UniProt Q13705 27-117, amino-biotinylated with amine-PEG3-Biotin); assay: BIAcore SPR, biotinylated ActRIIBecd on chip; SD ±18.12 nM
T1 construct: immobilised on a streptavidin-coated sensor chip; also called biotinylated ActRIIBecd; extracellular domain of ActRIIB
T1 sequence: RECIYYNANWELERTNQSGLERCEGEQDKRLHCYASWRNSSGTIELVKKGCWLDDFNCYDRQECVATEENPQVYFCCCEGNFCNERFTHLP
Protocol: (§1) Biosensor experiments. In one embodiment, experiments were performed on a BIAcore™ T100/T200 instrument (Pharmacia Biosensor AB) in the multichannel mode (serial flow path involving flow cells 1+2+3+4). Flow rate was 10 μl/min; temperature was 25° C.; and data were recorded at 2.5 points/s. All four segments of a sensor chip CMS were coated with streptavidin (Sigma) to a density of 2000 pg/mm² (2000 resonance units) by the aminocoupling procedure. ActRIIBecd (10 mg) and amine-PEG3-Biotin (10 mg, Pierce, Rockford, Ill.) were dissolved in 200 μl H₂O and 10 mg NaCNBH₃ was added to prepare biotinylated ActRIIBecd. The reaction mixture was heated at 70° C. for 24 h, after that a further 10 mg NaCNBH₃ was added and the reaction was heated at 70° C. for another 24 h. After cooling to room temperature, the mixture was desalted with the spin column (3,000 molecular weight cut off (MWCO)). […] Sensograms were recorded during flow of the analyte (the ActRIIBecd-associated polypeptides (i.e., domains) as previously described) first through flow cell 1 (control) then through flow cell 2 (biotinylated ActRIIBecd). […] The sensograms obtained at 1.11, 3.33, 10, 30, and 90 nM analyte were evaluated for equilibrium binding, association rate, and dissociation rate by using the programs supplied with the instrument (BIA evaluation 2.1; Software Handbook. 1995; Pharmacia Biosensor AB).

[2] = biological target: T1, extracellular domain of activin …; assay: BIAcore SPR, biotinylated ActRIIBecd on chip; SD ±17.89 nM
Protocol: as §1

[3] = biological target: T1, extracellular domain of activin …; assay: BIAcore SPR, biotinylated ActRIIBecd on chip; SD ±16.78 nM
Protocol: as §1

[4] = biological target: T1, extracellular domain of activin …; assay: BIAcore SPR as Example 5 (method not restated); SD ±2.66 nM
Protocol: as §1

[5] = biological target: T1, extracellular domain of activin …; assay: Mean KD column of Table 5; method not restated (BIAcore as Example 5); species also listed in Table 4
Procedure, shortened: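 Receptor capture: biotin-ActRIIBecd on a streptavidin layer, 50-250 RU, loaded from pH 4.0 acetate. Analyte: polypeptides in pH 4.5 glycine, 1.11-90 nM. Output: subtracted sensograms fitted for rates and affinity.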

[6] = biological target: T1, extracellular domain of activin …; assay: BIAcore SPR as Example 5 (method not restated); SD ±3.57 nM
Protocol: as §1

[7] = biological target: T1, extracellular domain of activin …; assay: BIAcore SPR as Example 5 (method not restated); SD ±1.30 nM
Protocol: as §1

[8] = biological target: T1, extracellular domain of activin …; assay: BIAcore SPR as Example 5 (method not restated); SD ±1.39 nM
Protocol: as §1

[9] = biological target: T1, extracellular domain of activin …; assay: BIAcore SPR as Example 5 (method not restated); SD ±1.71 nM
Protocol: as §1

[10] = biological target: T1, extracellular domain of activin …; assay: BIAcore SPR as Example 5 (method not restated); SD ±1.43 nM
Protocol: as §1

[11] = biological target: T1, extracellular domain of activin …; assay: BIAcore SPR as Example 5 (method not restated); SD ±2.07 nM
Protocol: as §1

[12] = biological target: T1, extracellular domain of activin …; assay: BIAcore SPR as Example 5 (method not restated); SD ±1.33 nM
Protocol: as §1

[13] = biological target: T1, extracellular domain of activin …; assay: BIAcore SPR as Example 5 (method not restated); SD ±2.65 nM
Protocol: as §1

[14] = biological target: T1, extracellular domain of activin …; assay: BIAcore SPR as Example 5 (method not restated); SD ±1.04 nM
Protocol: as §1

[15] = biological target: T1, extracellular domain of activin …; assay: BIAcore SPR as Example 5 (method not restated); SD ±1.18 nM
Protocol: as §1

[16] = biological target: T1, extracellular domain of activin …; assay: BIAcore SPR as Example 5 (method not restated); SD ±1.59 nM
Protocol: as §1

[17] = biological target: T1, extracellular domain of activin …; assay: BIAcore SPR as Example 5 (method not restated); SD ±1.17 nM
Protocol: as §1

[18] = biological target: T1, extracellular domain of activin …; assay: BIAcore SPR as Example 5 (method not restated); SD ±2.63 nM
Protocol: as §1

[19] = biological target: T1, extracellular domain of activin …; assay: BIAcore SPR as Example 5 (method not restated); SD ±1.95 nM
Protocol: as §1

A Kd [1] of 56 nM was found for VDFSDVGWNDWAVAPPGYHAFYCHGECPFPLADHLNSDNHAIVQTLVNSV [Clone No. 16 domain (ActRIIBecd-associated polypeptide)] in this work.

A Kd [2] of 67.4 nM was found for VDFSDVGWNDWIVAPPGYHAFYCHGECPFPLADHLNSDNHAIVQTLVNSV [Clone No. 17 domain (ActRIIBecd-associated polypeptide)] in this work.

A Kd [3] of 64.1 nM was found for VDFSDVGWNDHAVAPPGYHAFYCHGECPFPLADHLNSTNHAIVQTLVNSV [Clone No. 18 domain (ActRIIBecd-associated polypeptide)] in this work.

B1: SEQ ID NO: 292, cysteine pairs C79-C80^a (designed binder)
chain: GQAKRKGYKRLKSSCKRHPLYVDFKDVGWNDHAVAPPGYHAFYCHGECPFPLADHLNSDNHAIVQTKVNSVNSKDPKACCVPTELSAPSPLYLDENEKPVLKNYQDMVVHGCGCR
modifications: disulfides C79-C80 (intra)
A Kd [4] of 29 nM and a Kd [5] of 29 nM were found for B1 in this work.

B2: SEQ ID NO: 292, cysteine pairs C15-C15^b, C79-C114^a, C80-C112^a, C44-C48^a (designed binder)
chain: B1 chain
modifications: disulfides C15-C15 (inter), C79-C114 (intra), C80-C112 (intra), C44-C48 (intra)
notes: homodimer by intermolecular disulfide
A Kd [6] of 5.81 nM and a Kd [5] of 5.81 nM were found for B2 in this work.

B3: SEQ ID NO: 292, cysteine pairs C80-C114^b, C79-C112^b, C44-C48^a (designed binder)
chain: B1 chain
modifications: disulfides C80-C114 (inter), C79-C112 (inter), C44-C48 (intra)
notes: as for B2
A Kd [7] of 5.54 nM and a Kd [5] of 5.54 nM were found for B3 in this work.

B4: SEQ ID NO: 300, cysteine pairs C23-C27^a, C65-C65^b, C79-C112^a, C80-C114^a (designed binder)
chain: VDFKDVGWNDHAVAPPGYHAFYCHGECPFPLADHLNSDNHAIVQTKVNSVGQAKRKGYKRLKSSCKRHPLYNSKDPKACCVPTELSAPSPLYLDENEKPVLKNYQDMVVHGCGCR
modifications: disulfides C23-C27 (intra), C65-C65 (inter), C79-C112 (intra), C80-C114 (intra)
notes: as for B2
A Kd [8] of 5.14 nM and a Kd [5] of 5.14 nM were found for B4 in this work.

B5: SEQ ID NO: 300, cysteine pairs C23-C27^a, C65-C65^b, C79-C114^a, C80-C112^a (designed binder)
chain: B4 chain
modifications: disulfides C23-C27 (intra), C65-C65 (inter), C79-C114 (intra), C80-C112 (intra)
notes: as for B2
A Kd [9] of 7.37 nM and a Kd [5] of 7.37 nM were found for B5 in this work.

B6: SEQ ID NO: 308, cysteine pairs C59-C59^b, C8-C41^a, C9-C43^a, C88-C92^a (designed binder)
chain: NSKDPKACCVPTELSAPSPLYLDENEKPVLKNYQDMVVHGCGCRGQAKRKGYKRLKSSCKRHPLYVDFKDVGWNDHAVAPPGYHAFYCHGECPFPLADHLNSDNHAIVQTKVNSV
modifications: disulfides C59-C59 (inter), C8-C41 (intra), C9-C43 (intra), C88-C92 (intra)
notes: as for B2
A Kd [10] of 5.98 nM and a Kd [5] of 5.98 nM were found for B6 in this work.

B7: SEQ ID NO: 308, cysteine pairs C8-C9^a (designed binder)
chain: B6 chain
modifications: disulfides C8-C9 (intra)
A Kd [11] of 31.2 nM and a Kd [5] of 31.2 nM were found for B7 in this work.

B8: SEQ ID NO: 308, cysteine pairs C59-C59^b, C8-C43^a, C9-C41^a, C88-C92^a (designed binder)
chain: B6 chain
modifications: disulfides C59-C59 (inter), C8-C43 (intra), C9-C41 (intra), C88-C92 (intra)
notes: as for B2
A Kd [12] of 6.11 nM and a Kd [5] of 6.11 nM were found for B8 in this work.

B9: SEQ ID NO: 316, cysteine pairs C8-C67^a (designed binder)
chain: NSKDPKACCVPTELSAPSPLYLDENEKPVLKNYQDMVVHGCGCRVDFKDVGWNDHAVAPPGYHAFYCHGECPFPLADHLNSDNHAIVQTKVNSVGQAKRKGYKRLKSSCKRHPLY
modifications: disulfides C8-C67 (intra)
A Kd [13] of 28.9 nM and a Kd [5] of 28.9 nM were found for B9 in this work.

B10: SEQ ID NO: 316, cysteine pairs C67-C71^a, C8-C43^a, C9-C41^a, C109-C109^b (designed binder)
chain: B9 chain
modifications: disulfides C67-C71 (intra), C8-C43 (intra), C9-C41 (intra), C109-C109 (inter)
notes: as for B2
A Kd [14] of 6.17 nM and a Kd [5] of 6.17 nM were found for B10 in this work.

B11: SEQ ID NO: 316, cysteine pairs C67-C71^a, C8-C43^b, C9-C41^b, C109-C109^b (designed binder)
chain: B9 chain
modifications: disulfides C67-C71 (intra), C8-C43 (inter), C9-C41 (inter), C109-C109 (inter)
notes: as for B2
A Kd [15] of 5.78 nM and a Kd [5] of 5.78 nM were found for B11 in this work.

B12: SEQ ID NO: 324, cysteine pairs C15-C15^b, C79-C114^a, C80-C112^a, C44-C48^a (designed binder)
chain: B1 chain with G1A, R5H, G7Q, Y8R, D75I, P88I, P90M, P99V, H110E
modifications: disulfides C15-C15 (inter), C79-C114 (intra), C80-C112 (intra), C44-C48 (intra)
notes: as for B2
A Kd [16] of 8.42 nM and a Kd [5] of 8.42 nM were found for B12 in this work.

B13: SEQ ID NO: 340, cysteine pairs C15-C15^b, C29-C62^a, C30-C64^a, C88-C92^a (designed binder)
chain: AQAKHKQRKRLKSSCKRHPLYNSKDPKACCVPTELSAPSPLYLDENEKPVLKNYQDMVVHGCGCRVDFKDVGWNDHAVAPPGYHAFYCHGECPFPLADHLNSDNHAIVQTKVNSV
modifications: disulfides C15-C15 (inter), C29-C62 (intra), C30-C64 (intra), C88-C92 (intra)
notes: as for B2
A Kd [17] of 5.77 nM and a Kd [5] of 5.77 nM were found for B13 in this work.

B14: SEQ ID NO: 340, cysteine pairs C15-C29^a (designed binder)
chain: B13 chain
modifications: disulfides C15-C29 (intra)
A Kd [18] of 30.1 nM and a Kd [5] of 30.1 nM were found for B14 in this work.

B15: SEQ ID NO: 340, cysteine pairs C15-C15^b, C29-C64^a, C30-C62^a, C88-C92^a (designed binder)
chain: B13 chain
modifications: disulfides C15-C15 (inter), C29-C64 (intra), C30-C62 (intra), C88-C92 (intra)
notes: as for B2
A Kd [19] of 7.19 nM and a Kd [5] of 7.19 nM were found for B15 in this work.

From patent US20190071480A1 (Biogen, published 2019)
